Test results published in the nanobody polyreactivity screen of Harvey et al. (2022).

experiment: yeast display, Sf9 membrane polyspecificity reagent, FACS + sequencing; frameworks hold sequencing errors
How it was run: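 Galactose induction of a Saccharomyces cerevisiae BJ5465 synthetic nanobody display library ran 36–48 hours. The cells were then stained for 1 hour at 4 °C with 10% biotinylated, detergent-solubilized Sf9 membrane reagent, pulled down on streptavidin microbeads and FACS-sorted into low and high (top ~1%) gates on expression and reagent-binding fluorescence. Labels for polyreactivity follow the gate of origin.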

Row | Sequence | polyreactivity (PSR sort gate)
1 | QVQLVESGGGLVQAGGSLRLSCAASGSIFAYYAMGWYRQAPGKERELVAAISRRGGSTYYADSVKGRFTISRDNAKNTGYLQMNSLQPEDTAVYYCAADIGPRYDSWGLGTQVTVSS | high polyreactivity
2 | QVQLVESGGGLVQAGGSLRLSCAASGSIFAYYAMGWYRQAPGKERELVADITSSGGITYYADSVKGRFTISRDNAKNTVYLQMISLKPEDTAVYYCNADSWAIGGGSYPFDYWGQGTQVTVSS | low polyreactivity
3 | QVQLVESGGGLVQAGGSLRLSCAASGSIFAYYAMGWYRQAPGKERELVARIRRRSSSTFYADSVKGRFTISRDNAKYTVYLQMNSLKPEDTAVYYCAVRGPGTSTYWYHEYEYWGQGTQVTVSS | high polyreactivity
4 | QVQLVESGGGLVQAGGSLRLSCAASGSIFCDKAMGWYRQAPGKERELVAAISIVGSTSYADSVKGRFTISRDNANNTVYLQMNSLKPEDTAVYYCAAENVRSDTGFDYWGQGTQVTVSS | low polyreactivity
5 | QVQLVESGGGLVQAGGSLRLSCAASGSIFDANAIGWYRQAPGKERELVAAIDSGDITNYADSVKGRFTISRDNAKNTVYLQMNSLKPEDTAVYYCAAEWHYIYAYDYWGQGTQVTVSS | low polyreactivity
6 | QVQLVESGGGLVQAGGSLRLSCAASGSIFDAYAMGWYRPATGKERELVAAITYSGGSTYYADSVKGRFTISRDNAKNTVYLQMNSLKPEDTAVYYCNTDSRVRTWFRAFTYDSWGQGTQVTVSS | low polyreactivity
7 | QVQLVESGGGLVQAGGSLRLSCAASGSIFDAYAMGWYRQAPGKERELVAAISLSDTSTYYADSVKGRFTISRDNAKNTVYLQMNSLKPEDTAVYYCAAEFYIAYIEYDYWGQGTQVTVSS | high polyreactivity
8 | QVQLVESGGGLVQAGGSLRLSCAASGSIFDDNAMGWYRPAPGKERELVATINYGGGRTSYADSVKGRSTISRDNAKNTVYLQMNSLKPEDTAVYYCAADPRQKEDYWGQGTQVTVSS | low polyreactivity
9 | QVQLVESGGGLVQAGGSLRLSCAASGSIFDDNAMGWYRQAPGKERELVAAITSTDSTNYADSVKGRFTISRDNAKNPVYLQMNSLKPEDTAVYYCNAESLGWYRLYTVDYWGQGTQVTVSS | low polyreactivity
10 | QVQLVESGGGLVQAGGSLRLSCAASGSIFDDYAMGWYRPAPGKEREVVAAISSGGSTYYADSVKGRFTISRDNAKNTVYLQMNSLKPEDTAVYYCNALYPQVGFGYWGQGTQVTVSS | low polyreactivity
11 | QVQLVESGGGLVQAGGSLRLSCAASGSIFDDYAMGWYRQAAGKERELVAAITWNGGSTYADSVKGRFTISRDYAKNTVYLQMHSLKPEDTAVYYCNRGGAFNTRNEITRYGYWGQGTQVTVSS | low polyreactivity
12 | QVQLVESGGGLVQAGGSLRLSCAASGSIFDDYAMGWYRQAPGKEREFVADISYNGGTTYSADSVKGRFTISRDNAKNTVYLQMNSLKPEDTAVYYCAADRTNYTYYLPYDYWGPGTQVTVSS | low polyreactivity
13 | QVQLVESGGGLVQAGGSLRLSCAASGSIFDDYAMGWYRQAPGKERELVAAISWSGGSTYYADSVKGRFTISRDNAKNTVYLQMNSLKPEDTAVYYCAAYDYDYLYGEYYWGQGTQVTVSS | low polyreactivity
14 | QVQLVESGGGLVQAGGSLRLSCAASGSIFDDYAMGWYRQAPGKERELVAAITSGGSTYYADSVKGRFTISRDNAKNTVYLQMNSLKPEDTAVYYCAAPENKSDEYDYWGQGTQVTVSS | low polyreactivity
15 | QVQLVESGGGLVQAGGSLRLSCAASGSIFDDYAMGWYRQAPGKERELVATITSGDTTNYADSVKGRFTISRDNAKNTVYLQMNSLKPEDTAVYYCAADYLTSRSRTFDYWGQGTQVTVSS | low polyreactivity
16 | QVQLVESGGGLVQAGGSLRLSCAASGSIFDENAMGWYIQAPGKERELVAAITGSGVRTYYADSVKGRFTISRDNAKTTVYLQMNSLKPEDTAVYYCAAETLGVYDYESYTYYWGQRTQVTVSS | high polyreactivity

Row | Sequence | polyreactivity (PSR sort gate)
17 | QVQLVESGGGLVQAGGSLRLSCAASGSIFDEYAMGWYRQAPGKERELVAVISTSGSTYYADSVKGRFTISRDNAKNPVYLQMNCLKPEDTGVYSSNAAIYTSSYRSYDYWGQGTQVTVTS | low polyreactivity
18 | QVQLVESGGGLVQAGGSLRLSCAASGSIFDFNAMGWYRQAPGKERELVAAIDDIDDSTYYSDSVKGRFTISRDNAKNTVYLQMNSLKPEDTAVYYCAAELRPGYRSSYGLIYDYWGQGTQVTVSS | low polyreactivity
19 | QVQLVESGGGLVQAGGSLRLSCAASGSIFDFYAMGWYRQAPGKERELVAAISGSGGSTYYADSVKGRFTISRDNAKNTVYLQMNSLKPEDTAVYYCSYYYWGQGTQVTVSS | low polyreactivity
20 | QVQLVESGGGLVQAGGSLRLSCAASGSIFDFYAMGWYRQAPGKVRELVAAITSGSNTYYADSVKGRFTISRDNAKNTVYLQMNSLKPEDTAVYYCAARRRIYRSMGYWGQGTQVTVSS | low polyreactivity
21 | QVQLVESGGGLVQAGGSLRLSCAASGSIFDGNALGWYRQAPGKERELVAAISYRGGSTYYADSVKGRFTISRDNAKNTVYLQMNSLKPEDTAVYYCAAGSISTPGRGVDKPDPYDYWGQGTQVTVSS | low polyreactivity
22 | QVQLVESGGGLVQAGGSLRLSCAASGSIFDGNAMGWYRQAPGKERELVAAITNSGGSTYYADSVKGRFTISRDNAKNTVYLQMNSLKPEDTAVYYCNALPFAWRRYRWVRTMYYWGQGTQVTVSS | low polyreactivity
23 | QVQLVESGGGLVQAGGSLRLSCAASGSIFDGSAMGWYRQAPGKERELVASISSGGSTNYADSVKGRFTISRDNAKNTVYLQMNSMKPEDTAVYYCAAEWVWYKWEFEYWGQGTQVSVSS | high polyreactivity
24 | QVQLVESGGGLVQAGGSLRLSCAASGSIFDGYALGWYRQAPGKEREFVAAIDTGDTRTYYADSVKGRFTISRDNAKNTVYLQMNSLKPEDTAVYYCNADDWAYGMDYWGQGTQVTVSS | low polyreactivity
25 | QVQLVESGGGLVQAGGSLRLSCAASGSIFDGYAMGWYRQAPGKERELVAAISQRGGSTYYADSVKGRFTISRDNAKNTVYLQMNSLKPEDTAVYYCAADSSYGTREYWGQGTQVTVSS | low polyreactivity
26 | QVQLVESGGGLVQAGGSLRLSCAASGSIFDGYAMGWYRQAPGKERELVAAISSGGSTYYADSVKGRFTISRDNAKNTVYLQMNSLKPEDTAVYYCNRVRRRVSTSIYNYWGQGTQVTVSS | high polyreactivity
27 | QVQLVESGGGLVQAGGSLRLSCAASGSIFDGYAMGWYRQAPGKERELVAAISSSGVTTYYADSVKGRFTISRDNAKNTVYLQMNSLKPEDTAVYYCATYSYTWLNYYWGQGTQVTVSS | high polyreactivity
28 | QVQLVESGGGLVQAGGSLRLSCAASGSIFDLNAMGWYRQAPGKERELVAAISKSGGSTYYADSVKGRFTISRDNAKNTVYLQMISLKPEDSAVYYCAARYHYPGNWYNYWGQGTQVTVSS | low polyreactivity
29 | QVQLVESGGGLVQAGGSLRLSCAASGSIFDLNAMGWYRQAPGKERELVAAISSGGGTYYADSVKGRFTISRDNAKNTVYFQMNSLKPEDTAVYYCNRVTRWTYNYWGQGTQVTVSS | high polyreactivity
30 | QVQLVESGGGLVQAGGSLRLSCAASGSIFDLYTMGWYRQAPGTERELVAAISRSGGSTYYADSVKGRFTISRDNAKNTVYLQMNSLKPEDTAVYYCAARGPYRPPHGDAYYTYGYWGQGTQVTVSS | high polyreactivity
31 | QVQLVESGGGLVQAGGSLRLSCAASGSIFDPNAMGWYRQAPGKERELVAAINSGGSTDYADSVKGRFTISRDNAKNTVYLQMNSLKPEDTAVYYCNAEYGYSGVGDDYWGQGTQVTVSS | low polyreactivity
32 | QVQLVESGGGLVQAGGSLRLSCAASGSIFDPYAMGWYRQAPGKETELDAAITASGSSTYYADSVKGRFTISRDNAKNTVYLQMNSLKPEDTAVYYCAADRANWEYLLSWLGYDYWGQGTQVTVSS | low polyreactivity
